Experimental data reported in paper PMC5031558.

Target: HOIP PUB domain (aa 1–184) (UniProt Q96EP0)
Assay: fluorescence polarisation; FITC-Ahx-labeled PIM peptides with purified PUB domains; triplicate

HOIP PUB domain (aa 1–184), sequence (Q96EP0 1-184): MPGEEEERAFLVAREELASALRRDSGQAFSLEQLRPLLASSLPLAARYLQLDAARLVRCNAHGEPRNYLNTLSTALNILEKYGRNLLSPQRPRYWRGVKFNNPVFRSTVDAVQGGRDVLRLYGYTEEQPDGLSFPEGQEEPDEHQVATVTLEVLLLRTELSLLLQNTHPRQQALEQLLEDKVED

A Kd of 300 nM was found for FITC-Ahx-labeled OTULIN PIM peptide in this work.
A Kd of 300 nM was found for FITC-Ahx-labeled SPATA2 PIM peptide in this work.
